Where a chain is given by its changes, count along the chain named. Names and notes keep the numbering of the source.
T1: Heat shock transcription factor 1 (Hsf1), wildtype (human), Q00613
T1 chain: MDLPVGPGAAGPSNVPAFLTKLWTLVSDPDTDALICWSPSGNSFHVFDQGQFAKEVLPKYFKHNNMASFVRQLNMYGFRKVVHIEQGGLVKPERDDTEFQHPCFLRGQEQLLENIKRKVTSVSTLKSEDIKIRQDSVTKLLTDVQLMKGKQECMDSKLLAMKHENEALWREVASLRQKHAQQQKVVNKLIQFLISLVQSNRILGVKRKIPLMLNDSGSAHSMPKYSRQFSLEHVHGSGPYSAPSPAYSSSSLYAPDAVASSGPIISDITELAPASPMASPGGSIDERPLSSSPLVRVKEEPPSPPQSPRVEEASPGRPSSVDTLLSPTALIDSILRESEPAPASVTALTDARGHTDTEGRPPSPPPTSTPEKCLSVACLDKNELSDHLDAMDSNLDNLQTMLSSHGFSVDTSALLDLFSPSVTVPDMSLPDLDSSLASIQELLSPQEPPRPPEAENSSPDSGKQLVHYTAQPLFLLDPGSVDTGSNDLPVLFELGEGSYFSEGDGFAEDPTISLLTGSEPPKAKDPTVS

B1: Heat shock transcription factor 1 (Hsf1), wildtype, Q00613 1-529 (natural protein)
chain: T1 chain
B2: Hsf1–S303E,S307E (double phosphomimetic variant) (natural protein, human, UniProt Q00613 1-529, looked up)
chain: T1 chain with S303E, S307E
notes: Heat shock transcription factor 1 (Hsf1), human, full length, phosphomimetic S303E,S307E; theoretical mass 57,270.43 Da; also called EE; source: E. coli BL21(DE3) Rosetta, purified (Ni-IDA, tag cleaved with tobacco etch virus protease, SEC; monomeric and trimeric fractions)
B3: Hsf1–K298R,S303E,S307E (natural protein, human, UniProt Q00613 1-529, looked up)
chain: T1 chain with K298R, S303E, S307E
notes: Heat shock transcription factor 1 (Hsf1), human, full length, K298R in the S303E,S307E variant; also called REE; EE,K298R; source: E. coli BL21(DE3) Rosetta, purified (Ni-IDA, tag cleaved with tobacco etch virus protease, SEC)

Experiments:
[1] = target: T1, Heat shock transcription factor 1 …; experiment: native gel or EMSA; Blue native PAGE (8% gel, on ice) of monomeric Hsf1 and of Hsf1 monomers heat shocked at 42 °C for 10 min; samples taken at 0 and 3 h of incubation at 25 °C (Figure S1); conditions: remark: other sources report otherwise
[2] = target: the molecule itself; experiment: as above

Row | Binder | stoichiometry N [1] | stoichiometry N [2]
1 | B1 | 3 | –
2 | B2 | – | 3
3 | B3 | – | 3

— publication PMC7949154, “Heat shock transcription factor 1 is SUMOylated in the activated trimeric state” (The Journal of Biological Chemistry, 2020)
